Assay results as given in paper PMC13676896 (2026).

Target: T1, MYO10 motor domain 1-741 (Homo sapiens, UniProt Q9HD67)
T1 chain: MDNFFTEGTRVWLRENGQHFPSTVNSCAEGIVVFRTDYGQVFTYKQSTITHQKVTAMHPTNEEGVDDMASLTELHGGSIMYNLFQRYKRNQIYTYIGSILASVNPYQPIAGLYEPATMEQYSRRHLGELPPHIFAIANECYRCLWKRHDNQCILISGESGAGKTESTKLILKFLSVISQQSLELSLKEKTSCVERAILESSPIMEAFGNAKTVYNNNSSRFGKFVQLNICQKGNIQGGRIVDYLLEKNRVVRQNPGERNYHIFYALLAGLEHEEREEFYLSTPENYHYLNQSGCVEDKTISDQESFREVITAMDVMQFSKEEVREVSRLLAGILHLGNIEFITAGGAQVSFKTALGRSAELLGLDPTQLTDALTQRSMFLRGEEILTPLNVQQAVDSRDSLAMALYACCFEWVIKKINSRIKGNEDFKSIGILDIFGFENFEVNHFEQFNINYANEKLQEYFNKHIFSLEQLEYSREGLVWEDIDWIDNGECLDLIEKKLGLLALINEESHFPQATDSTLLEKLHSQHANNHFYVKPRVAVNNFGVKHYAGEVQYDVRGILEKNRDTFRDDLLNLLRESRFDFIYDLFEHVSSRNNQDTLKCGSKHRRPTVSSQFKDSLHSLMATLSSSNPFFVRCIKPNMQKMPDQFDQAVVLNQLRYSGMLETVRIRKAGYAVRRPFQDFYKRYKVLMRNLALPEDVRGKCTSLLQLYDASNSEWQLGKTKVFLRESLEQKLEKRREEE
Assay: MST

B1: CCT8 (protein)
chain: ALHVPKAPGFAQMLKEGAKHFSGLEEAVYRNIQACKELAQTTRTAYGPNGMNKMVINHLEKLFVTNDAATILRELEVQHPAAKMIVMASHMQEQEVGDGTNFVLVFAGALLELAEELLRIGLSVSEVIEGYEIACRKAHEILPNLVCCSAKNLRDIDEVSSLLRTSIMSKQYGNEVFLAKLIAQACVSIFPDSGHFNVDNIRVCKILGSGISSSSVLHGMVFKKETEGDVTSVKDAKIAVYSCPFDGMITETKGTVLIKTAEELMNFSKGEENLMDAQVKAIADTGANVVVTGGKVADMALHYANKYNIMLVRLNSKWDLRRLCKTVGATALPRLTPPVLEEMGHCDSVYLSEVGDTQVVVFKHEKEDGAISTIVLRGSTDNLMDDIERAVDDGVNTFKVLTRDKRLVPGGGATEIELAKQITSYGETCPGLEQYAIKKFAEAFEAIPRALAENSGVKANEVISKLYAVHQEGNKNVGLDIEAEVPAVKDMLEAGILDTYLGKYWAIKLATNAAVTVLRVDQIIMAKPAGGPKPPSGKKDWDDDQND
  Kd: 1160 nM
